Where two headings read alike, the source gives them in different places.
Key:
Experiment in all cases: SPR (Biacore), antibody captured on chip, FcgR extracellular domain as analyte
[1] = biological target: T1, FcgRIIIa F (human, UniProt P08637 17-208)
T1 construct: extracellular domain; also called FcγRIIIa F; not shown: His tag attached to the C terminus

[2] = biological target: T2, FcgRIIb (human, UniProt P31994 43-217)
T2 construct: extracellular domain; Expressed in FreeStyle293 cells and purified; used as analyte in Biacore; also called FcγRIIb; CD32B; not shown: His tag attached to the C terminus
T2 sequence (looked up): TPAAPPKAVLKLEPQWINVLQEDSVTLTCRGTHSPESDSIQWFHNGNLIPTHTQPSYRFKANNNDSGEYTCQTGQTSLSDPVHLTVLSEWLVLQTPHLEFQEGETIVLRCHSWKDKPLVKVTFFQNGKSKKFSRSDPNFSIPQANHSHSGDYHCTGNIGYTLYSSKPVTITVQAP

[3] = biological target: T3, FcgRIIIa V (human, UniProt P08637 17-208)
T3 construct: extracellular domain; also called FcγRIIIa V; not shown: His tag attached to the C terminus

[4] = biological target: T4, FcgRIa (human, UniProt P12314 16-292)
T4 construct: extracellular domain; Expressed in FreeStyle293 cells and purified; used as analyte in Biacore; also called FcγRIa; FcγRI; not shown: His tag attached to the C terminus

[5] = biological target: T5, FcgRIIa R (human, UniProt P12318 34-217)
T5 construct: extracellular domain; also called FcγRIIa R; FcγRIIa type R; not shown: His tag attached to the C terminus
T5 sequence (looked up): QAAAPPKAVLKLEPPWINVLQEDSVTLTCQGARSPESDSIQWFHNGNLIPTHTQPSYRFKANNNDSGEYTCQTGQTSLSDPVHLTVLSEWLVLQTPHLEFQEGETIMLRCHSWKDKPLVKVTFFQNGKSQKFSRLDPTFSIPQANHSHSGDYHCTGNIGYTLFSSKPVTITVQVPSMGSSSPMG

[6] = biological target: T6, FcgRIIa H (human, UniProt P12318 34-217)
T6 construct: extracellular domain; also called FcγRIIa H; FcγRIIa type H; not shown: His tag attached to the C terminus
T6 sequence (looked up): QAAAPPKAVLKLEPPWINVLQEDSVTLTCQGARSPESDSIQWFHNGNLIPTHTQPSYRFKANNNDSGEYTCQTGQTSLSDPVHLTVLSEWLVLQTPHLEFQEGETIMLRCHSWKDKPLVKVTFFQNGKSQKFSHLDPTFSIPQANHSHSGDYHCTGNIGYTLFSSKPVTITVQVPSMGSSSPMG

[7] = biological target: T3, FcgRIIIa V; remark: listed apart in the source
[8] = biological target: T5, FcgRIIa R; remark: listed apart in the source
[9] = biological target: T6, FcgRIIa H; remark: listed apart in the source
[10] = biological target: T1, FcgRIIIa F; remark: listed apart in the source
[11] = biological target: T2, FcgRIIb; remark: listed apart in the source
[12] = biological target: T3, FcgRIIIa V; remark: listed apart in the source
[13] = biological target: T4, FcgRIa; remark: listed apart in the source
[14] = biological target: T5, FcgRIIa R; remark: listed apart in the source
[15] = biological target: T6, FcgRIIa H; remark: listed apart in the source

T3 sequence (P08637 17-208 F176V limits assumed): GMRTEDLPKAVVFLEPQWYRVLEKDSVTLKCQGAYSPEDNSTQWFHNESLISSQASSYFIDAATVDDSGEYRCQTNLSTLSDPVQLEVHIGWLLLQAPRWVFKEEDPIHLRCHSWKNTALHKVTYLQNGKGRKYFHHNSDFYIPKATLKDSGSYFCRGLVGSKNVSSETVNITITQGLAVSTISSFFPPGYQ
T1 sequence (P08637 17-208): as the sequence (P08637 17-208 F176V limits assumed) above, with V160F counted along it
T4 sequence (P12314 16-292): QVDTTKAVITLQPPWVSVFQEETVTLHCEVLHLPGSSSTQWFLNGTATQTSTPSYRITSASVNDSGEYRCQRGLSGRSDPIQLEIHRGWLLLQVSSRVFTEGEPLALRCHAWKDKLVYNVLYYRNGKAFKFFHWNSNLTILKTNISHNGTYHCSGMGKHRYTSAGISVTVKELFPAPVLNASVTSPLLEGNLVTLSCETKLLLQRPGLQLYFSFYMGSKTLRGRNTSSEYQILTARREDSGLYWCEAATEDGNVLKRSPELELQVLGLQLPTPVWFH

B1: H240-afucosyl_G1d/L73-k0 (antibody, human IgG1, kappa)
heavy: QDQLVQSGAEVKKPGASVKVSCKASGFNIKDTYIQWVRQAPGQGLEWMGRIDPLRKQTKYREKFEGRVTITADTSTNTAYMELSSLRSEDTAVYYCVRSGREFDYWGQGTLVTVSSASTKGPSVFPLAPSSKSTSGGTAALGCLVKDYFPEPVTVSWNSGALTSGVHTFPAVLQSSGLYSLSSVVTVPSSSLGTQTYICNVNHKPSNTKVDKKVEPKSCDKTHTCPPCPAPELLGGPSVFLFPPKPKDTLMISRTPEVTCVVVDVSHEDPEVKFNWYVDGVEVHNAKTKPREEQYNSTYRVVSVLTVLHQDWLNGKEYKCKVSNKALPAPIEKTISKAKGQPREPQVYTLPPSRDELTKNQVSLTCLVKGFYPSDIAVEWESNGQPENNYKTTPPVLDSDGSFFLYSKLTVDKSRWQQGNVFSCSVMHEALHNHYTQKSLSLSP
light: DIQMTQSPSSLSASVGDRVTITCRASQDIHKYIAWYQQKPGQAPRLLIQYTSTLQPGVPSRFSGSGSGTDYTFTISSLQPEDIATYYCLQYEQLRTFGGGTKVEIKRTVAAPSVFIFPPSDEQLKSGTASVVCLLNNFYPREAKVQWKVDNALQSGNSQESVTEQDSKDSTYSLSSTLTLSKADYEKHKVYACEVTHQGLSSPVTKSFNRGEC
modifications: fucose removed from the sugar chain (afucosylated); amino acid sequence same as H240-G1d
notes: Anti-EREG IgG1 obtained by afucosylating H240-G1d/L73-k0; also called afucosylated antibody
With B1 the Kd [1] was 79 nM, the Kd [2] was 2600 nM and the Kd [3] was 6.9 nM. For the same binder, the Kd [4] was 0.43 nM, the Kd [5] was 490 nM and the Kd [6] was 780 nM. For the same binder, the Kd [7] was 6.9 nM, the Kd [8] was 490 nM and the Kd [9] was 780 nM. The Kd [10] was 79 nM, the Kd [11] was 2600 nM and the Kd [12] was 6.9 nM. It also gave a Kd [13] of 0.43 nM, a Kd [14] of 490 nM and a Kd [15] of 780 nM.
